Measurements taken from paper PMC11723922.
Read-outs that look alike come from different tables or passages of the source.

What was measured:
Test in all cases: SPR; BIAcore X100; biotinylated Avi-tagged TβRI or TβRII captured on neutravidin-coupled CM-5 chip (max 150 RU); full-length TGM injected as twofold dilution series; HBS-EP, 25 mM HEPES, 150 mM NaCl, 0.005% P20, pH 7.4; 100 µL/min; 1:1 kinetic model
[1] = target: Biotinylated Avi-tagged human TβRI extracellular domain (human) (UniProt P36897)
[2] = target: Biotinylated Avi-tagged human TβRII extracellular domain (human) (UniProt P37173)
[3] = target: Biotinylated Avi-tagged human TβRI extracellular domain (human) (UniProt P36897); remark: listed apart in the source

Sequence of Biotinylated Avi-tagged human TβRI extracellular domain (human) (P36897 34-126): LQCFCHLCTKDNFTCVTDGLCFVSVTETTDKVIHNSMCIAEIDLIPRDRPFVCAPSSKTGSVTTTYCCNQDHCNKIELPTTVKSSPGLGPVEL
Sequence of Biotinylated Avi-tagged human TβRII extracellular domain (human) (P37173 23-166): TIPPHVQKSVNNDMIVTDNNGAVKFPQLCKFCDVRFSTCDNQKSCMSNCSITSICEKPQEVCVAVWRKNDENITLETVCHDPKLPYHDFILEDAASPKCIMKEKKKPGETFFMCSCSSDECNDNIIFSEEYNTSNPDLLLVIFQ

Row | Substance | Kd [1] | Kd [2] | Kd [3]
1 | TGM1 full-length (D1-5), recombinant (natural protein) | 90 nM | – | –
2 | TGM4 full-length (D1-5), recombinant (natural protein) | 5 nM | 116000 nM | 3 to 5 nM
